Measured values as given in US20200171068A1, “COMPOSITIONS COMPRISING APTAMERS AND NUCLEIC ACID PAYLOADS AND METHODS OF USING THE SAME” (Children's National Medical Center, priority 2017, published 2020).

B1: miR-26a chimera: mouse c-Kit DNA aptamer-C3-passenger RNA, passenger RNA-TEG-cholesterol and miR-26a-5p guide strand annealed (SEQ ID NO:6/7, 8, 9) (nucleic acid)
chain 1: GCTCAACGCGGGACGGCTCTCCCATTGAC
chain 2: CCUAUUCUGG
chain 3: GUUACUUGCACG
guide: UUCAAGUAAUCCAGGAUAGGCU
modifications: chemistry not fully specified

Columns and labels:
Assay type in all cases: in vivo, mouse
[1] = test system: hematopoiesis
Description: The mice received intravenous injection of 670 pmol/20 g miR-26a or control chimera daily for 3 days. 150 mg/kg 5-FU was injected on day 2 of the chimera treatment. FIG. 2A is a graph showing the numbers of white blood cells (WBC) 10 days after 5-FU treatment. Data (mean+s.d.) were pooled from two experiments, involving a total of 6 mice per group. FIG. 2B is a graph showing the number of bone marrow (BM) cells 10 days after 5-FU treatment. Data (mean+s.d.) were pooled from two experiments, involving a total of 6 mice per group. FIG. 2C is (left) a representative picture of LSK population 5 days after 5-FU treatment with or without miR-26a chimera treatment; and (right) a graph showing the percentages of LSK population. Data (mean+s.d.) were pooled from two experiments, involving a total of 6 mice per group. FIG. 2D is a series of graphs showing apoptosis. Left, representative picture of Annexin V^+ in LSK population 5 days after 5-FU treatment. Right, the percentages of Annexin V^+ in the LSK population. Data (mean+s.d.) were pooled from two experiments, involving a total of 6 mice per group. *P<0.05, **P<0.01. FIG. 2E is a picture showing a putative miR-26a target site in the 3′UTR of mouse Bak1 (SEQ ID NO:19). Base pairs CU-GA -UACUUGAA (SEQ ID NO:20) of the Bak Sequence and its complementary basepairs are the sites with highly probability preferential conservation between mammals. The miR-26a sequence depicted is SEQ ID NO:21. FIG. 2F is a graph showing relative luciferase activity of reporter constructs containing the wild-type or mutant (mut) 3′-UTR of mouse Bak1 in HEK293 cells co-transfected with either miR-26a precursor (OE), miR-26a TuD inhibitor (TuD), or negative control (ctrl). Data were pooled from two experiments. FIG. 2G is a graph showing relative expression level of Bak1 mRNA in LSK population 5 days after 5-FU treatment. Data (mean+s.d.) were pooled from two experiments, involving a total of 6 mice per group. FIG. 2H is a graph showing that targeted mutation of the Bak1 gene increased survival of LSK in BM at day 5 after 150 mg/kg 5-FU treatments. Data shown are percent of LSK in BM (n=3 for Bak1^+/+ mice and n=4 for Bak1^−/− mice). […] of Bak1^+/+ and Bak1^−/− LSK in BM. Data shown percent of untreated, after normalization using means of LSK % from BM of two untreated Bak1^+/+ and Bak1^−/− mice as 100%. FIG. 2J is a graph showing the numbers of WBC 10 days after 150 mg/kg 5-FU treatments between Bak1^−/− mice and wild type mice. Data (mean+s.d.) were pooled from two experiments, involving a total of 7 mice per group. *P<0.05, **P<0.01.
For xenograft models, the NSG mice and BALB/c mice were subcutaneously injected with 2×10^6 viable MDA-MB-231 cells and TUBO cells in their right hind limbs, respectively. After the tumor grew to 1 cm in diameter, mice were randomly divided into the groups for each treatment. For no treatment control, 100 μl saline with 1% mouse serum was intravenously injected through tail vein. […] Tumor sizes were measured in two dimensions every 3 days. Tumor volume (V) was calculated using the following formula: V=(½) S^2×L (S. the shortest dimension; L, the longest dimension). Animals were euthanized when the tumor size was over 2 cm diameters, tumor ulcerated, or became necrotic. For chimera treatment in normal mice, C57BL/6 mice were treated with miR-26a chimera (670 pmol/20 g) everyday for 3 days by intravenous injection. At day 2, 150 mg/kg 5-FU and/or 120 mg/kg carboplatin was injected together with the chimera. Peripheral bloods were collected at day 5 and day 10 after the 5-FU treatment. Complete blood counts were measured by Hemavet 950FS (Drew Scientific, Miami Lakes, Fla., USA).
For aptamer binding assay, streptavidin-APC (Cat #554067) […] Bioscience, San Jose, Calif., USA) was used for detecting the biotin-conjugated aptamers by flow cytometry. Other cell targeting aptamer specific for Ramos cells (28) was used for negative control. […]

[2] = test system: hematopoiesis; experiment: Carboplatin-induced myelosuppression in mice
Description: For xenograft models, the NSG mice and BALB/c mice were subcutaneously injected with 2×10^6 viable MDA-MB-231 cells and TUBO cells in their right hind limbs, respectively. After the tumor grew to 1 cm in diameter, mice were randomly divided into the groups for each treatment. For no treatment control, 100 μl saline with 1% mouse serum was intravenously injected through tail vein. For treatment groups, 670 pmol/20 g chimeras and/or 5(0 mg/kg 5-fluorouracil (5-FU), or 120 mg/kg carboplatin were also intravenously injected. Tumor sizes were measured in two dimensions every 3 days. Tumor volume (V) was calculated using the following formula: V=(½) S^2×L (S. the shortest dimension; L, the longest dimension). Animals were euthanized when the tumor size was over 2 cm diameters, tumor ulcerated, or became necrotic. For chimera treatment in normal mice, C57BL/6 mice were treated with miR-26a chimera (670 pmol/20 g) everyday for 3 days by intravenous injection. At day 2, 150 mg/kg 5-FU and/or 120 mg/kg carboplatin was injected together with the chimera. Peripheral bloods were collected at day 5 and day 10 after the 5-FU treatment. Complete blood counts were measured by Hemavet 950FS (Drew Scientific, Miami Lakes, Fla., USA).

[3] = test system: TUBO-derived tumors; experiment: Syngeneic TUBO breast tumor model in BALB/c mice

reduction in the LSK population ([1]; C57BL/6, mouse, in vivo, 5 days) [fold] | Bak1 expression in LSK cells ([1]; mouse, in vivo) | Molecule | percent of apoptotic (Annexin V+) LSK ([1]; mouse, in vivo) | 5-FU-induced myelosuppression (leukocyte counts, bone marrow cellularity) ([1]; 670 pmol/20 g chimera i.v. daily for 3 days, 150 mg/kg 5-FU on day 2) | 5-FU-induced myelosuppression (WBC, RBC, PLT), chimera mixed with 5-FU ([1]; 150 mg/kg 5-FU with 2 nmol/20 g chimera i.v. at same time, 5 and 10 days) | prevention of 5-FU-induced reduction in the LSK population ([1]; 5 days after 5-FU, chimera 670 pmol/20 g daily for 3 days) | protection of LSK from 5-FU-induced apoptosis ([1]; 5 days after 5-FU, chimera treatment) | 5-FU-induced Bak elevation in LSK cells ([1]; mouse, in vivo) | carboplatin-induced myelosuppression (figure title) ([2]; 670 pmol/20 g i.v. daily for 3 days, FIG. 6) | carboplatin-induced reduction in WBC and RBC ([2]; 3 daily injections of chimera) | carboplatin-induced reduction of platelet on day 5 ([2]; 3 daily injections of chimera) | drop of platelets from day 5 to day 10 ([2]; 3 daily injections of chimera) | Bak expression among c-Kit+ tumor cells ([3]; 670 pmol/20 g, 3 days) | Ezh2 expression among c-Kit+ tumor cells ([3]; 670 pmol/20 g, 3 days) | miR-26a among c-Kit+ tumor cells ([3]; 3 days after injection, qPCR) | miR-26a levels in c-Kit+ BM cells ([3]; day 3 after single treatment, qPCR) | Bak1 expression in c-Kit+ HSPC ([3]; mice that received no 5-FU-treatment)
~10 | massively induced | O=c1[nH]cc(F)c(=O)[nH]1 [5-FU, 5-fluorouracil, reference compound] | massively increased |  |  |  |  |  |  |  |  |  |  |  |  |  | 
 |  | B1 |  | significantly ameliorated myelosuppression | protects mice against 5-FU-induced myelosuppression | largely prevented | specifically protected | significantly diminished | protects mice against carboplatin-induced myelosuppression | prevented reduction in WBC and RBC | not prevented | prevented further drop of platelets | not significantly elevated | specific decrease | significant increase | selective increase | not significantly down-regulated
